Assay results published in the DeepSol protein solubility set.

Test: soluble on expression in E. coli; label from the status in PepcDB or PDB records

Sequence	soluble on expression in E. coli
MSLTADTSLSSIQEAINVVQQYNATDPVRLKLFHTPRMVSQGAHFAFCLPTKKPHYKPLLLSQNALDEFNLVQDQDLEKILSGEKVYYSDSIFPYSTVYSGFQFGSFAAQLGDGRVVNLFDLKDKCSGQWQTFQLKGAGMTPFSRFADGKAVLRSSIREFIMSEALHSIGIPSTRAMQLTLLPGTKAQRRNQEPCAVVCRFAPSWIRLGNFNLFRWRHDLKGLIQLSDYCIEELFAGGTQFEGKPDFNIFKRDFFPDTETKIDEQVEKDETEVSTMTGDNISTLSKYDEFFRHVVSLNANTVAHWQAYGFANGVLNTDNTSIMGLTIDYGPFAFLDKFEPSFTPNHDDTAKRYSFANQPSIIWWNLQQFAKDLACLLGPEARDLELLLKGELNSVDDALEKTMIERVQKLVELSANEYKYVFTTRYAQIMSQRLGVDLDLEKCMSSTNLKDIEHAAEKAKEFCDVIVEPLLDILQATKVDYNNFFIHLQNYKGPFFIKDKSDTATLFGAFDEEYLGMFFNSKQLQQMAETEEAFAAGEKVFDANGELRLLNEKLQEIRNWTQDYLTLVPPTETAARASLAKKANPLFVPRSWVLEEVVDDLMYSQRDGLQDPSSELDTSALKKLYLMSVNPYDRTKWDVTLRPELETKWADLSHQDDAKFMMQASCSSEGHHHHHH	soluble
MSLTESFSTPKFHISPTGMIMEGAQLHIKCTIQVTHLAQEFPEIIIQKDKAIVAHNRHGNKAVYSVMAMVEHSGNYTCKVESSRISKVSSIVVNITELFSKPELESSFTHLDQGERLNLSCSIPGAPPANFTIQKEDTIVSQTQDFTKIASKSDSGTYICTAGIDKVVKKSNTVQIVVCEMLSQPRISYDAQFEVIKGQTIEVRCESISGTLPISYQLLKTSKVLENSTKNSNDPAVFKDNPTEDVEYQCVADNCHSHAKMLSEVLRVKVIAPVDEVQISILSSKVVESGEDIVLQCAVNEGSGPITYKFYREKEGKPFYQMTSNATQAFWTKQKASKEQEGEYYCTAFNRANHASSVPRSKILTVRVIEGHHHHHH	not soluble
MSLTEYVDAVPAASMTVCTVQHTDTTPQHSINEDRVIPLDSNKGIADMEFGDAHTLAHRVSASAERMYRFSSIETTQFIKILLRKMAARMASLASCHTHVYASSHSLPWDSACEHYIFGMRRILIEGHHHHHH	not soluble
MSLTGFLLLHGTIVTVDRERRIIEDGALAINDDRIVDIGTVDELEPRHGGKEVIDCRGKLIIPGLIDAHGHAGHALLRSIAADTNAMWMKIITPTYYHYVTRDYWYADGLISGIERLRAGVTTGASIITSMPRADDPVFAINHARAYSELGLREIICVGPSGLPWPHPVTRWESGQPERRDVSFDEMMDGSEAVIETLHGSADGRISVFLTPFTIVPSVEPSNASSPDQAVKLTEGDRMQARRVREMARKRGVRLHSDAFAGQIRMAFQDKENALLGPDIHLQHCWGISHDEIDILAETGTRVTHAPPGRSTPIMEMMSKSIRVAITTDGAAPSRHFDMLQTARLAQFTQHLLHNHDRYLLPPGKIFEMITIDAAHAIGMEDEIGSLEIGKKADVVIIDMRKPHLMPMWMPVHRLVHQALGSDVDTVFVDGKLLMDNGRVLTSDVDAAITFGQQEAMALAERAGLKVHMHDPGWGRLLRTFDEQVYPPRPPKDASYRVTDHESGQDHEGHHHHHH	soluble
